Test [1] deals with T1, rhB7H1-Fc: fusion protein of the extracellular part of human B7-H1 (PD-L1) and mouse Fc gamma 1, R&D Systems … (human; mouse, UniProt Q9NZQ7 19-238).
T1 construct: extracellular domain; Bought product, made in NS0 cells; also called B7-H1 ectodomain; B7H1/hFc
The experiment in a line: ELISA, purified Nanobody titrated on coated rhB7H1-Fc (Example 5), OD 490 nm. The protocol:
In short, 5 μg/ml B7-H1 ectodomain (rhB7H1-Fc, R&D Systems, Minneapolis, US, Cat #156-B7) or control Fc was immobilized on maxisorp microtiter plates (Nunc, Wiesbaden, Germany) and free binding sites were blocked using 4% Marvel in. PBS. […] […] Binding specificity was determined based on OD values compared to controls having received no Nanobody (low control). 17 out of the 96 selected clones were able to bind to B7-H1 with some specificity.
(In an ELISA, binding on a coated surface is turned into a signal by an enzyme label.)

Test [2] concerns the target T2, rhPDL2-Fc: fusion protein of the extracellular part of human PD-L2 and mouse Fc gamma 1, R&D Systems Cat … (human; mouse, UniProt Q9BQ51 20-220).
T2 construct: extracellular domain; Bought product, made in NS0 cells; also called PD-L2 ectodomain; PDL2/hFc
T2 sequence (looked up): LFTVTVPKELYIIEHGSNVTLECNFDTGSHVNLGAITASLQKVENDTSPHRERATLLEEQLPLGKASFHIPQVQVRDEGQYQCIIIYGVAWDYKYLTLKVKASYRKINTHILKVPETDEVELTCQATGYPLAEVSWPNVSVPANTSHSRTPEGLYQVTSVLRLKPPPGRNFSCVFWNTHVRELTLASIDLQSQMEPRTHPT
The test can be described thus: ELISA, Nanobody dilution series 1-3125 nM on coated PDL2/hFc, rabbit anti-VHH detection, OD 490 nm (Example 10). The protocol:
(§1) In order to check for bispecific binding, the clones selected and screened for B7-H1 binding were tested for binding PD-L2 in an ELISA setup. In short, plates were coated with 100 μl (2 μg/ml) of PDL2/hFc (R&D Systems, Minneapolis, US, Cat #1224-PL) in PBS overnight at 4C. After washing, plates were blocked with 4% MPBS for 2 hours on a shaker, A dilution series of Nanobody (1-3125 nM) in 100 μl 2% Marvell/PBS was added and incubated for 1 hour on a shaker. After washing, detection was performed with 100 μl 1:5000 rabbit-anti-VHH in 2% Marvell/PBS for 1 hour on a shaker. After washing, anti-VHH antibody was detected with 100 μl 1:5000 DARPO (in 2% Marvell/PBS for 1 hour on a shaker). PO was detected with 100 μl OPD (add 1:1000 H₂O₂ before use). The reaction was stopped with 50 μM H₂SO₄ and absorption was read at 490 nm with a platereader.

In test [3] the target is T1, rhB7H1-Fc: fusion protein of the …. The test can be described thus: ELISA, Nanobody dilution series 1-3125 nM on coated B7H1/hFc, rabbit anti-VHH detection, OD 490 nm (Example 11). The protocol:
as §1, with “PD-L2” for “B7-H1”, “PD-L1” for “PD-L2”, “B7H1/hFc” for “PDL2/hFc”, “#156-B7)” for “#1224-PL)”, “shaker.” for “shaker,”, “μl 1 M” for “μM”

Test [4] deals with T2, rhPDL2-Fc: fusion protein of the …. The test can be described thus: ELISA, purified Nanobody titrated on coated PD-L2-Fc (Example 9), OD 490 nm. The protocol:
In short, 5 μg/ml PD-L2 ectodomain (R&D Systems, Minneapolis, US, Cat #1224-PL) was immobilized on maxisorp microtiter plates (Nunc, Wiesbaden, Germany) and free binding sites were blocked using 4% Marvel in PBS. Next, 10 μl of periplasmic extract containing Nanobody of the different clones in 100 μl 2% Marvel PBST were allowed to bind to the immobilized antigen. […] Binding specificity was determined based on OD values compared to controls having received no Nanobody (low control). 32 out of the 96 selected clones were able to bind to PD-L2 with some specificity.
Clones were selected for recloning in an expression vector derived from pUC119 which contained the LacZ promoter, a resistance gene for ampicillin or carbenicillin, a multicloning site and the gen3 leader sequence. In frame with the Nanobody® coding sequence, the vector coded for a C-terminal c-myc tag and a (His)6 tag. After expression, the obtained Nanobodies were purified via the His-tag on Talon beads. Purified Nanobodies were tested in ELISA for binding to PD-L2 as described.

T1 sequence (Q9NZQ7 19-238 limits assumed): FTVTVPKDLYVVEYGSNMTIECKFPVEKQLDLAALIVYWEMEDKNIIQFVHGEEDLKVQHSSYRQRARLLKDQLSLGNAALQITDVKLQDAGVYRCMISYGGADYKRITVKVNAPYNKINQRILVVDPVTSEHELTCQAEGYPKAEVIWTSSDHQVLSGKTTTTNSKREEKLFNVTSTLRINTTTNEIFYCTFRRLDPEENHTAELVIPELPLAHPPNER

B1: 104B10 (VHH)
VHH: EVQLVESGGGLVQAGGSLRLSCAASGSTFSQYDVGWYRQAPGKQRELVAFSSSGGRTIYPDSVKGRFTFSRDNTKNTVYLQMTSLKPEDTAVYYCKIDWYLNSYWGQGTQVTVSS
notes: also called anti-B7H1 nanobody 104B10
Regarding B1, the binding result in test [1] and in test [2] was “binds” throughout.

B2: 104D7 (VHH)
VHH: EVQLVESGGGLVQAGGSLTISCAASGITFSDSIVSWYRRARGKQREWVAGISNGGTTKYAESVLGRFTISRDNAKNMVYLQMNGLNPEDTAVYLCKVRQYWGQGTQVTVSS
notes: also called anti-B7H1 nanobody 104D7
With B2, the binding result in test [1] is recorded as “binds”. In test [2], the concentration for a half-maximal effect (EC50 (read off the curve)) was approximately 30 nM.

B3: 104D2 (VHH)
VHH: EVQLVESGGGLVQPGGSLRLSCAASGFTLDYYAIGWFRQAPGKEREWASSISSSDGSTYYADSVKGRFTISRDNAKNTVFLQMNSLKPEDTAVYSCAASQAPITIATMMKPFYDYWGQGTQVTVSS
notes: purified via the His-tag; also called anti-B7H1 nanobody 104D2
On to B3, for which, in test [1], the binding result is “binds”.

B4: 103D3 (VHH)
VHH: EVQLVESGGGLVEPGGSLRLSCVASGFTFSSYDMSWVRQAPGKGLEWVSTINSGGGITYRGSVKGRFTISRDNAKNTLYLQMNSLKPEDTAVYYCENGGSSYRRGQGTQVTVSS
notes: also called anti-PDL2 nanobody 103D3
Consider B4, for which the binding result in test [3] was “no binding (tested: 3125 nM)”; in test [4], “binds”.

B5: 103E2 (VHH)
VHH: EVQLVESGGGLVQAGGSLRLSCAASGSTFSNYVSNYAMGWGRQAPGTQRELVASISNGDTTNYADSVKGRFTISRDNAKNTVYLQMNSLKPEDTAVYYCFEHQVAGLTWGQGTQVTVSS
notes: also called anti-PDL2 nanobody 103E2
For B5, the binding result in test [3] is given as “no binding (tested: 3125 nM)”; in test [4] it was “binds”.

B6: 103F10 (VHH)
VHH: EVQLVESGGGLVQAGGSLRLSCAASGRTFSSGTMGWFRRAPGKEREFVASIPWSGGRTYYADSVKDRFTISRDNAQNTVFLQMNSLKPEDTAVYYCAFKERSTGWDFASWGQGIQVTVSS
notes: also called anti-PDL2 nanobody 103F10
Consider B6, for which the binding result in test [3] and in test [4] was “binds” each time.

B7: 104F5 (VHH)
VHH: EVQLVESGGGLVQPGGSLRLSCAASGFTLDYYAKCWFRQAPGKEREWVSCISSSDGSTYYADSVKGRFTISRDNAKNTVYLQMNSLKPEDTAVYFCAARHGGPLTVEYFFDYWGQGTQVTVSS
notes: purified via the His-tag; also called anti-B7H1 nanobody 104F5
Regarding B7, the binding result in test [1] is given as “binds”; in test [2] it was “no binding (tested: 3125 nM)”.

B8: 104E12 (VHH)
VHH: EVQLVESGGGLVQPGGSLRLSCAASGFTFDYYAIGWFRQAPGKAREGVSCISGGDNSTYYADSVKGRFTISRDNAKNTVYLQMNSLKPEDTAVYYCATGGWKYCSGYDPEYIYWGQGTQVTVSS
notes: also called anti-B7H1 nanobody 104E12
In the case of B8, in test [2], the binding result is “no binding (tested: 3125 nM)”.

What is called EC50 (read off the curve) is the concentration at which the effect is half-maximal. Low values mean higher potency in that assay, high ones lower potency in that assay.

For the origin of these results see patent US20110129458A1 (Ablynx, published 2011).
